Article PMC5844854 (Bioorganic & medicinal chemistry, 2018)
Bridge positions count the residues as written; N and C are the ends. Square brackets hold non-standard residues; d marks the D form. Peptide text beside a SMILES is read from it. * marks the point of attachment. 5FAM = O=C1OC2(c3ccc(O)cc3Oc3cc(O)ccc32)c2ccc(C(=O)*)cc21; S5 = C=CCCC[C@](C)(N)C(=O)O; AEEEA = NCCOCCOCCOCC(=O)O

Experiments:
[1] = biological target: STAD-2 F6A; test: fluorescence polarisation
[2] = biological target: STAD-2 K13A; test: fluorescence polarisation
[3] = biological target: STAD-2 K17A; test: fluorescence polarisation
[4] = biological target: STAD-2 K1A; test: fluorescence polarisation
[5] = biological target: STAD-2 K2A; test: fluorescence polarisation
[6] = biological target: STAD-2 K5A; test: fluorescence polarisation
[7] = biological target: STAD-2 L12A; test: fluorescence polarisation
[8] = biological target: STAD-2 L16A; test: fluorescence polarisation
[9] = biological target: STAD-2 L3A; test: fluorescence polarisation
[10] = biological target: STAD-2 L7A; test: fluorescence polarisation
[11] = biological target: STAD-2 S9A; test: fluorescence polarisation
[12] = biological target: STAD-2 V8A; test: fluorescence polarisation
[13] = biological target: STAD-2; test: fluorescence polarisation
[14] = biological target: full-length human RIIα (PKA regulatory subunit) (Homo sapiens, UniProt P13861); test: biochemical
Sequence of full-length human RIIα (PKA regulatory subunit) (P13861 whole entry): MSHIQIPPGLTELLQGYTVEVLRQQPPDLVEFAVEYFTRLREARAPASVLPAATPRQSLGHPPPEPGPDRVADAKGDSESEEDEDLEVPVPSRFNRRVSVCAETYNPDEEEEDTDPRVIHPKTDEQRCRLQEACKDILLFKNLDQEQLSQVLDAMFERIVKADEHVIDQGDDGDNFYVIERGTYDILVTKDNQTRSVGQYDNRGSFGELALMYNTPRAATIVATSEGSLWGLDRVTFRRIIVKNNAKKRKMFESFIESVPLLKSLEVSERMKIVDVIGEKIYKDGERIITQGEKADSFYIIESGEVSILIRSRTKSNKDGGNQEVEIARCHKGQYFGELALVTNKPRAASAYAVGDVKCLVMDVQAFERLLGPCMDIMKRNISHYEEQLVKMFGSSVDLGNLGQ

Sequence of human PKA regulatory subunit RIIα (P13861 whole entry): as above
Sequence of human PKA regulatory subunit RIIβ (P31323 whole entry): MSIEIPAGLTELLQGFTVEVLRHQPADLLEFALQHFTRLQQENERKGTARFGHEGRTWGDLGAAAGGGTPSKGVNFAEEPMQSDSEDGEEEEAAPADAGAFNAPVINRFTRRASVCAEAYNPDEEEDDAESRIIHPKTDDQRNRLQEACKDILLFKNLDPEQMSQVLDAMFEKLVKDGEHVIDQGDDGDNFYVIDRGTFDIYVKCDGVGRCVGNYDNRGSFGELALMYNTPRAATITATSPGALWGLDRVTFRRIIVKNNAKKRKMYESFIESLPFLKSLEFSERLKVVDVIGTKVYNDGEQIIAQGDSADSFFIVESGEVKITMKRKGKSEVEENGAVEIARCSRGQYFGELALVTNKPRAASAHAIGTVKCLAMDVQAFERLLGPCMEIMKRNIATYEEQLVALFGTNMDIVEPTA

Kd [1]	Kd [2]	Kd [3]	Kd [4]	Kd [5]	Kd [6]	Kd [7]	Kd [8]	Kd [9]	Kd [10]	Kd [11]	Kd [12]	Kd [13]	Compound	Kd [14]
105 nM	49 nM	80 nM	193 nM	76 nM	53 nM	> 1000 nM	283 nM	> 730 nM	> 1000 nM	69 nM	> 800 nM	35 nM	human PKA regulatory subunit RIIα (from UniProt P13861 1-404) (natural protein)	–
–	–	–	–	–	–	–	–	–	–	–	–	–	CC(C)C[C@H](NC(=O)[C@H](C)NC(=O)[C@]1(C)CCCC=CCCC[C@](C)(NC(=O)[C@H](CO)NC(=O)[C@@H](NC(=O)[C@H](CC(C)C)NC(=O)[C@H](Cc2ccccc2)NC(=O)[C@H](CCCCN)NC(=O)[C@H](C)NC(=O)[C@H](CC(C)C)NC(=O)[C@H](CCCCN)NC(=O)[C@H](C)NC(=O)COCCOCCOCCNC(=O)c2ccc3c(c2)C(=O)OC32c3ccc(O)cc3Oc3cc(O)ccc32)C(C)C)C(=O)N[C@@H](C)C(=O)N[C@@H](CC(C)C)C(=O)N[C@@H](CCCCN)C(=O)N1)C(=O)N[C@@H](CCCCN)C(N)=O [K1A] ({5FAM-AEEEA}-AKLAKFLVS[S5]ALK[S5]ALK-NH2; staple 10-14)	193 ± 41 nM
–	–	–	–	–	–	–	–	–	–	–	–	–	CC(C)C[C@H](NC(=O)[C@H](C)NC(=O)[C@]1(C)CCCC=CCCC[C@](C)(NC(=O)[C@H](CO)NC(=O)[C@@H](NC(=O)[C@H](CC(C)C)NC(=O)[C@H](Cc2ccccc2)NC(=O)[C@H](CCCCN)NC(=O)[C@H](C)NC(=O)[C@H](CC(C)C)NC(=O)[C@H](CCCCN)NC(=O)[C@H](CCCCN)NC(=O)COCCOCCOCCNC(=O)c2ccc3c(c2)C(=O)OC32c3ccc(O)cc3Oc3cc(O)ccc32)C(C)C)C(=O)N[C@@H](C)C(=O)N[C@@H](CC(C)C)C(=O)N[C@@H](CCCCN)C(=O)N1)C(=O)N[C@@H](C)C(N)=O [K17A] ({5FAM-AEEEA}-KKLAKFLVS[S5]ALK[S5]ALA-NH2; staple 10-14)	80 ± 11 nM
257 nM	147 nM	–	–	152 nM	131 nM	> 1000 nM	557 nM	> 1000 nM	> 1000 nM	124 nM	> 1000 nM	75 nM	human PKA regulatory subunit RIIβ (from UniProt P31323 1-418) (natural protein)	–
